Data: article PMC8056888 (Journal of Applied Glycoscience, 2017)

Legend:
[1] = tested on: Foagl1; settings: conditions not stated for this substrate
[2] = substrate: CO[C@H]1O[C@H](CO)[C@@H](O)[C@H](O)[C@H]1O; experiment: purified protein; settings: conditions not stated for this substrate
[3] = substrate: O=[N+]([O-])c1ccc(O[C@H]2O[C@H](CO)[C@@H](O)[C@H](O)[C@H]2O)cc1; experiment: purified protein; settings: pH 6.0, sodium phosphate, 30 °C

Row | Km [1] [mM] | Molecule | Km [2] [mM] | kcat [2] [s⁻¹] | Km [3] [mM] | kcat [3] [s⁻¹] | kcat/Km [3] [M⁻¹ s⁻¹]
1 | 24.3 | CO[C@H]1O[C@H](CO)[C@@H](O)[C@H](O)[C@H]1O [α-MG] | – | – | – | – | –
2 | – | AgdC (Aspergillus niger CBS 513.88) (protein) MAKSASQIHRAWWKECSVYQIWPASYKDSNDDGIGDIPGIISKLDYIKNIGVDIVWLCPSYKSPQVDMGYDIADYYSIADEYGTVADVEKLIQGCHERGMKLLMDLVVNHTSDQNEWFKQSRSSKDNKYRNWYVWKPARYDEQGNRHPPNNWVSHFQGSAWEWDEHTGEYYLHLYATEQPDLNWEHPPVRKAVHDIMRFWLDKGADGFRMDVINFISKDQRFPDAPVKDPRTPWQWGDKYYANGPRLHEYLQDLGKILKEYDAFSVGEMPFVRDTEEVLRAVRYDRNEINMIFNFEHVDIDHGTYDKFEPGSWKLTDLKAFFETWQKFMYNNDGWNALYWENHDQPRSIDRYAQAKEEFRTEAGKMLATVLALQSGTPFVYQGQEIGMRNVPVEWDMNEYKDIDCLNHWHRLLKHRPDDIEAQKSARQEYQKKSRDNGRTPVQWSSAPNGGFTGPNAKPWMSVSPDYVRFNAEAQVNDPNSIYHYWAAVLGLRKKYLDIFVYGDYDLVDKDSQEIFAYARQYENKKALVLTNWTEKTLEWDATTNGVKGVKDVLLNSYESAEAAKGRFSGQKWSLRPYEAVVLLVEA | 32.8 | 5.0 | 7.8 | 19.8 | –
3 | – | Agl1 (Aspergillus oryzae RIB40) (protein) MATPGNQNHRAWWKESSVYQIWPCSFKDSNDDGIGDIPGIISKLDHIKNLGIDIVWLCPSYKSPQVDMGYDIADYYDIAPEYGTVADVEKLIKGCHERGMKLLMDLVVNHTSDQHEWFKQSRSSKDNEYRNWYIWKPARYDEQGNRQPPNNWVSHFQGSAWEWDEHTQEYYLHLYATEQPDLNWEHPPVRKAVHDIMRFWLDKGANGFRMDVINFISKDQRFPDAPIKDPRTPWQWGDKYYANGPRLHEYFQELGKILKEYDTFSVGEMPFVTDTEEVLRAVKYDRNELNMIFNFEHVDIDHGKYDKFEPGSWELTDLKFFFERWQKFMYENDGWNALYWENHDQPRSVDRYTNAKEEDRVIASKMLATILALKAGSPFVYQGQEIGMGNVPPEWDIEEYKDIDCLNHWKRLPNDPEIQKIARQEYQKKSRDNGRTPVQWTNAPNAGFTSPNVKPWMSVNPNYARGINAEAQVNDPNSTYSYWASVLGLRKKYVDIFVYGNYELVDRDSQEIFAYTRQYEDQKALVLANWTDGTLEWDSSSNGVKAVKDVLLNTYDSASDVKERFSGSKWSLRPYEAVVLLIEA | 31.3 | – | 8.3 | 17.5 | 2120
